Where “and” joins values, the source holds several entries; their conditions need not be identical. Identical values can stand only once.
What was measured:
[1] = target: the molecule itself; experiment: native gel or EMSA; blue native PAGE, 5-20% gradient gel, 4 °C; 10 ug solubilised 5-HT3AR incubated 30 min with 0 to 10 mM SDS; BSA oligomers as size markers
[2] = target: the molecule itself; experiment: cryo-EM structure; single-particle cryo-EM of purified 5-HT3AR in saposin lipoprotein (Salipro) with brain polar lipids, 25 mM HEPES, 125 mM NaCl, pH 7.4; apo, with serotonin (uncaged RuBi-5-HT, 200 uM), and with 100 uM 5-HT + 2 mM CaCl2; 2D and 3D classification without imposed symmetry

B1: murine wild-type serotonin 5-HT3A receptor (receptor, mouse (murine), UniProt P23979 24-489, looked up)
chain: SRRRATQARDTTQPALLRLSDHLLANYKKGVRPVRDWRKPTTVSIDVIMYAILNVDEKNQVLTTYIWYRQYWTDEFLQWTPEDFDNVTKLSIPTDSIWVPDILINEFVDVGKSPNIPYVYVHHRGEVQNYKPLQLVTACSLDIYNFPFDVQNCSLTFTSWLHTIQDINITLWRSPEEVRSDKSIFINQGEWELLEVFPQFKEFSIDISNSYAEMKFYVIIRRRPLFYAVSLLLPSIFLMVVDIVGFCLPPDSGERVSFKITLLLGYSVFLIIVSDTLPATAIGTPLIGVYFVVCMALLVISLAETIFIVRLVHKQDLQRPVPDWLRHLVLDRIAWILCLGEQPMAHRPPATFQANKTDDCSGSDLLPAMGNHCSHVGGPQDLEKTPRGRGSPLPPPREASLAVRGLLQELSSIRHFLEKRDEMREVARDWLRVGYVLDRLLFRIYLLAVLAYSITLVTLWSIWHYS
modifications: densities resembling N-linked glycosylation at N82, N148 and N164
notes: 5-HT3A receptor subunit, mouse, wild type, full length; The same subunit is found as a pentamer and as a tetramer (4 or 5 copies); The intracellular domain is not modelled in the tetramer structures; also called 5-HT3R; 5-HT3AR-Salipro; source: purified (C12E9 solubilisation, Streptactin, SEC) and reconstituted in saposins with porcine brain polar lipids; also unpurified in cell-derived plasma …
[1]
  stoichiometry N: 3 and 2
[2]
  stoichiometry N: 4 and 5
